The subject of the data set is 19-mer (SEQ ID NO:11) cleavage domain peptide.

Active MMP-9 enzyme, sequence (chain, as listed by the source): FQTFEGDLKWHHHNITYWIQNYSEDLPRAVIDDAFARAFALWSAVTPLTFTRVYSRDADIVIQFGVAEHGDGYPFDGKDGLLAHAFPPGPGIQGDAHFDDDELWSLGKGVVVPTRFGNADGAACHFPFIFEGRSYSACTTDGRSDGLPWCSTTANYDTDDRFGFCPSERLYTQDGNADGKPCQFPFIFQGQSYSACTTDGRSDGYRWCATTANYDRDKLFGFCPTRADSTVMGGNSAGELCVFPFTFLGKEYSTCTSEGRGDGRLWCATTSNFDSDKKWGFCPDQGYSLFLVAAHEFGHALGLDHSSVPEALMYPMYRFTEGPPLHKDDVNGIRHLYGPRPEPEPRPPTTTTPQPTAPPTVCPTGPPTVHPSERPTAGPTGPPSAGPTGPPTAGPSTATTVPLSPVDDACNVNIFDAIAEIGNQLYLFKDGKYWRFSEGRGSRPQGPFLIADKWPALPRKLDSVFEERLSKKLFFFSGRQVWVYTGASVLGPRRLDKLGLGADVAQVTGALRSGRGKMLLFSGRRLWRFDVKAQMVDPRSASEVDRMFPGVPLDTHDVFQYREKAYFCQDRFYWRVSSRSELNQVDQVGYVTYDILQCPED

For the substance Active MMP-9 enzyme, the “extended time course of MMP-9 catalyzed hydrolysis of collagen” value is listed as “the 19-mer (SEQ ID NO:11) effectively inhibits the MMP-9 catalyzed hydrolysis of collagen to beyond 1000 minutes”.

(Values after US20030096757.)
